Test results: patent US20030119155A1

Molecular target: Methanol dehydrogenase (MDH) of Bacillus brevis S1 strain (NCIMB 12524) (Bacillus brevis S1 strain (NCIMB 12524))
Experiment: cell-based or functional assay

Amd (Activator of methanol dehydrogenase), YqkG gene product of Bacillus subtilis 168 strain (from UniProt P54570 1-185)
NADH producing rate (increase of absorbance at 340 nm after methanol addition) in cell extract, against the pHY300PLK vector control: 5 times
